The record followed here is PMC4624963, “Enzymatic Characterization of Recombinant Food Vacuole Plasmepsin 4 from the Rodent Malaria Parasite Plasmodium berghei” (PLoS ONE, 2015).

Where no end group is shown, it is not given here. [ ]: non-standard residue; d: D form. Nle = CCCC[C@H](N)C(=O)O Where only a bound is given, the exact number is not on record here.

Common to all, as to conditions: both partners purified
In experiment [1] the target is T1, mature plasmepsin 4 of Plasmodium berghei (PbPM4), auto-matured from semi-proPbPM4 (Plasmodium berghei ANKA).
T1 construct: also called mature PbPM4; FV plasmepsin 4; source: converted to mature enzyme by 5 min pre-incubation in sodium citrate pH 5.0 at 37°C
Nature of the experiment: enzyme inhibition kinetics (Ki of competitive inhibition); initial cleavage velocities of a chromogenic peptide substrate at varied inhibitor concentration, spectrophotometric; proPbPM4 pre-incubated in 100 mM sodium citrate pH 5.0, 37°C, 5 min; tight-binding or non-tight-binding competitive fit.

Experiment [2] concerns the target T2, plasmepsin 4 from Plasmodium falciparum (Plasmodium falciparum, UniProt Q8IM16 122-449).
T2 construct: also called PfPM4; source: zymogen converted to mature enzyme at pH 4.5, 37°C, 5 min
In words: enzyme inhibition kinetics (Ki of competitive inhibition); initial cleavage velocities of a chromogenic peptide substrate at varied inhibitor concentration; plasmepsins pre-incubated in 100 mM sodium formate pH 4.5, 37°C, 5 min to convert zymogen to mature enzyme.

The target in experiment [3] is T3, plasmepsin 2 from Plasmodium falciparum (Plasmodium falciparum, UniProt P46925 125-453).
T3 construct: also called PfPM2; source: zymogen converted to mature enzyme at pH 4.5, 37°C, 5 min
The description is as above.

In experiment [4] the target is T4, plasmepsin 1 from Plasmodium falciparum (Plasmodium falciparum, UniProt P39898 124-452).
T4 construct: also called PfPM1
Nature of the experiment: enzyme inhibition kinetics (Ki of competitive inhibition); initial cleavage velocities of a chromogenic peptide substrate at varied inhibitor concentration; mature PfPM1 pre-incubated in 100 mM sodium citrate pH 5.5, 37°C, 3 min.

One may read the Ki as a dissociation constant, usually derived from enzyme kinetics or from competition with a known ligand. Read a high Ki as lower affinity. KP[Nle]S[Nle]LQI (also: reduced amide Ψ[CH2-NH] between Nle5 and Leu6) [compound 3 (KPnLSnLΨLQI), peptidomimetic inhibitor designed for PfPM2] returned a Ki in experiment [1] of 375 ± 54 nM.

B1: compound 1 (KPYEFΨRQF), peptidomimetic inhibitor designed for PbPM4 (peptide)
peptide: KPYEFRQF
modifications: not fully specified (residue 5); printed as KPYEFΨRQF; also: Ψ pseudo-peptide bond between F5 and R6
notes: source: synthetic peptide
With B1, the results for the Ki in experiment [2], in experiment [3] and in experiment [4] were 190 ± 19 nM, 35000 nM and above 100000 nM, respectively.
